Assay results from the supplement of paper PMC11780869.

System: Bacillus subtilis
Assay: cleaved RNA product abundance (RNA/gDNA barcode ratio) relative to median wild-type variant (ratio to wild type); higher = more accumulation of the downstream cleavage product
Settings: cleavage site: cggR-gapA (positions -7 to +36 mutated)
Procedure: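 MPRA in B. subtilis. Mutagenized RNase Y cleavage-site regions (9% mutation rate) were inserted into a barcoded reporter mRNA (truncated aprE or tetM). Cells were grown in LB at 37°C to OD600 0.3. The cleaved RNA isoform was gel-purified and its barcodes counted; the RNA:gDNA barcode ratio was normalised to the median wild-type variant, and the median over barcodes is reported per variant. The printed sequence is the variable window only; the reporter flanks are not printed.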

[1] = experiment (reporter, strain, medium): exp 6: tetM reporter, strain 168
[2] = experiment (reporter, strain, medium): exp 4a: truncated aprE reporter, strain BJT201 with 2% xylose (RNase J1 expressed)
[3] = experiment (reporter, strain, medium): exp 2b: truncated aprE reporter, strain BJT200

Sequence	cleaved RNA product abundance [1]	cleaved RNA product abundance [2]	cleaved RNA product abundance [3]
ACAGACGAAGGAGACGCAAAGAAGTTATTAAGGGATGAATAATCCCTCAATATAAATATCTCTCACTTATTTAAA	1.03	–	–
ACAGACGAAGGAGCCACAAAGAAGTTATTAAAGGATGAATAATCCCTCAATATAAATATCTCTCACTTATTTAAA	0.254	–	–
ACAGACGAAGGAGCCACAAAGAAGTTATTAAGGGATGAATAATCCCTCAATATAAATATCTCTCACTTATTTAAA	1.09	–	–
ACAGACGAAGGAGCCCCAAAGAAGTTATTAAGGGATGAATAATCCCTCAATATAAATATCTCTCACTTATTTAAA	1.36	–	–
ACAGACGAAGGAGCCGAAAAGAAGTTATTAAGGGATGAATAATCCCTCAATATAAATATCTCTCACTTATTTAAA	0.794	–	–
ACAGACGAAGGAGCCGAATAGAAGTTATTAAGGGATGAATAATCCCTCAATATAAATATCTCTCACTTATTTAAA	0.727	–	–
ACAGACGAAGGAGCCGCAAAAAAATTATAAAGGGATGAATAATCCCTCAATATAAATATCTCTCACTTATTTAAA	–	0.268	–
ACAGACGAAGGAGCCGCAAAAAAATTATTAAGGGATGAATAATCCCTCAATATAAATATCTCTCACTTATTTAAA	–	1.04	1.1
ACAGACGAAGGAGCCGCAAAAAAATTATTAAGGGATGAATAATCCCTCATTATAAATATCTCTCACTTATTTAAA	–	0.267	–
ACAGACGAAGGAGCCGCAAAAAACTTATTAAGGGATGAATAATCCCTCAATATAAATATCTCTCACTTATTTAAA	–	0.479	–
ACAGACGAAGGAGCCGCAAAAAACTTATTAAGGGATGATTAATCCCTCAATATAAATATCTCTCACTTATTTAAA	–	–	0.325
ACAGACGAAGGAGCCGCAAAAAAGATATTAAGGGATGAATAATCCCTCAATATAAATATCTCTCACTTATTTAAA	0.421	0.913	–
ACAGACGAAGGAGCCGCAAAAAAGCTATTAAGGGATGAATAATCCCTCAATATAAATATCTCTCACTTATTTAAA	–	0.855	0.392
ACAGACGAAGGAGCCGCAAAAAAGGTATTAAGGGATGAATAATCCCTCAATATAAATATCTCTCACTTATTTAAA	–	0.879	1.78
ACAGACGAAGGAGCCGCAAAAAAGTAATTAAGGGATGAATAATCCCTCAATATAAATATCTCTCACTTATTTAAA	–	0.342	0.304
ACAGACGAAGGAGCCGCAAAAAAGTCATTAAGGGATGAATAATCCCTCAATATAAATATCTCTCACTTATTTAAA	–	0.37	–
ACAGACGAAGGAGCCGCAAAAAAGTGATTAAGGGATGAATAATCCCTCAATATAAATATCTCTCACTTATTTAAA	–	0.583	0.276
ACAGACGAAGGAGCCGCAAAAAAGTTAATAAGGGATGAATAATCCCTCAATATAAATATCTCTCACTTATTTAAA	–	0.365	0.335
ACAGACGAAGGAGCCGCAAAAAAGTTAATAAGGGATGAATATTCCCTCAATATAAATATCTCTCACTTATTTAAA	–	0.21	–

Sequence	cleaved RNA product abundance [1]	cleaved RNA product abundance [2]	cleaved RNA product abundance [3]
ACAGACGAAGGAGCCGCAAAAAAGTTACTAAGGGATGAATAATCCCTCAATATAAATATCTCTCACTTATTTAAA	–	–	0.222
ACAGACGAAGGAGCCGCAAAAAAGTTAGTAAGGGATGAATAATCCCTCAATATAAATATCTCTCACTTATTTAAA	–	0.374	–
ACAGACGAAGGAGCCGCAAAAAAGTTATAAAGAGATGAATAATCCCTCAATATAAATATCTCTCACTTATTTAAA	–	–	0.14
ACAGACGAAGGAGCCGCAAAAAAGTTATAAAGGGATGAATAATCCCTCAATATAAATATCTCTCACTTATTTAAA	–	0.581	0.4
ACAGACGAAGGAGCCGCAAAAAAGTTATCAAGGGATGAATAATCCCTCAATATAAATATCTCTCACTTATTTAAA	–	0.507	–
ACAGACGAAGGAGCCGCAAAAAAGTTATGAAGGGATGAATAATCCCTCAATATAAATATCTCTCACTTATTTAAA	–	0.453	–
ACAGACGAAGGAGCCGCAAAAAAGTTATTAAAGGATGAATAATCCCTCAATATAAATATCTCTCACTTATTTAAA	–	0.224	0.164
ACAGACGAAGGAGCCGCAAAAAAGTTATTAACGGATGAATAATCCCTCAATATAAATATCTCTCACTTATTTAAA	–	0.128	–
ACAGACGAAGGAGCCGCAAAAAAGTTATTAACGGATGAATAATCCTTCAATATAAATATCTCTCACTTATTTAAA	–	0.191	–
ACAGACGAAGGAGCCGCAAAAAAGTTATTAACGGATTAATAATCCCTCAATATAAATATCTCTCACTTATTTAAA	–	0.142	–
ACAGACGAAGGAGCCGCAAAAAAGTTATTAAGAGATAAATAATCCCTCAATATAAATATCTCTCACTTATTTAAA	–	0.0994	–
ACAGACGAAGGAGCCGCAAAAAAGTTATTAAGAGATGAATAATCCCTCAATATAAATATCTCTCACTTATTTAAA	0.0928	0.133	0.126
ACAGACGAAGGAGCCGCAAAAAAGTTATTAAGAGATGAATAATCCGTCAATATAAATATCTCTCACTTATTTAAA	–	0.0894	–
ACAGACGAAGGAGCCGCAAAAAAGTTATTAAGAGATGAATAATTCCTCAATATAAATATCTCTCACTTATTTAAA	–	0.159	–
ACAGACGAAGGAGCCGCAAAAAAGTTATTAAGCGATGAATAATCCCTCAATATAAATATCTCTCACTTATTTAAA	–	0.123	0.091
ACAGACGAAGGAGCCGCAAAAAAGTTATTAAGGAATAAATAATCCCTCAATATAAATATCTCTCACTTATTTAAA	–	–	0.0862
ACAGACGAAGGAGCCGCAAAAAAGTTATTAAGGAATGAACAATCCCTCAATATAAATATCTCTCACTTATTTAAA	–	0.182	–
ACAGACGAAGGAGCCGCAAAAAAGTTATTAAGGAATGAATAATCCCTCAATATAAATATCTCTCACTTATTTAAA	–	0.156	0.112
ACAGACGAAGGAGCCGCAAAAAAGTTATTAAGGCATGAATAATCCCTCAATATAAATATCTCTCACTTATTTAAA	–	0.126	0.104

Sequence	cleaved RNA product abundance [1]	cleaved RNA product abundance [2]	cleaved RNA product abundance [3]
ACAGACGAAGGAGCCGCAAAAAAGTTATTAAGGGAAGAATAATCCCTCAATATAAATATCTCTCACTTATTTAAA	–	0.403	0.426
ACAGACGAAGGAGCCGCAAAAAAGTTATTAAGGGACGAATAATCCCTCAATATAAATATCTCTCACTTATTTAAA	–	0.54	0.676
ACAGACGAAGGAGCCGCAAAAAAGTTATTAAGGGATAAATAATCCCTCAATATAAATATCTCTCACTTATTTAAA	–	0.86	0.8
ACAGACGAAGGAGCCGCAAAAAAGTTATTAAGGGATCAATAATCCCTCAATATAAATATCTCTCACTTATTTAAA	–	0.712	0.923
ACAGACGAAGGAGCCGCAAAAAAGTTATTAAGGGATGAAAAATCCCTCAATATAAATATCTCTCACTTATTTAAA	–	0.695	0.785
ACAGACGAAGGAGCCGCAAAAAAGTTATTAAGGGATGAACAATCCCTCAATATAAATATCTCTCACTTATTTAAA	–	0.764	0.87
ACAGACGAAGGAGCCGCAAAAAAGTTATTAAGGGATGAAGAATCCCTCAATATAAATATCTCTCACTTATTTAAA	–	0.918	–
ACAGACGAAGGAGCCGCAAAAAAGTTATTAAGGGATGAATAAACCCTCAATATAAATATCTCTCACTTATTTAAA	–	0.631	0.468
ACAGACGAAGGAGCCGCAAAAAAGTTATTAAGGGATGAATAAACCCTCTATATAAATATCTCTCACTTATTTAAA	–	0.22	–
ACAGACGAAGGAGCCGCAAAAAAGTTATTAAGGGATGAATAACCCCTCAATATAAATATCTCTCACTTATTTAAA	–	0.458	0.455
ACAGACGAAGGAGCCGCAAAAAAGTTATTAAGGGATGAATAAGCCCTCAATATAAATATCTCTCACTTATTTAAA	–	0.793	0.639
ACAGACGAAGGAGCCGCAAAAAAGTTATTAAGGGATGAATAATACCTCAATATAAATATCTCTCACTTATTTAAA	–	0.17	0.139
ACAGACGAAGGAGCCGCAAAAAAGTTATTAAGGGATGAATAATCACTCAATATAAATATCTCTCACTTATTTAAA	–	0.12	0.108
ACAGACGAAGGAGCCGCAAAAAAGTTATTAAGGGATGAATAATCCATCAATATAAATATCTCTCACTTATTTAAA	–	0.307	0.17
ACAGACGAAGGAGCCGCAAAAAAGTTATTAAGGGATGAATAATCCCACAATATAAATATCTCTCACTTATTTAAA	–	0.254	0.237
ACAGACGAAGGAGCCGCAAAAAAGTTATTAAGGGATGAATAATCCCCCAATATAAATATCTCTCACTTATTTAAA	–	0.35	0.238
ACAGACGAAGGAGCCGCAAAAAAGTTATTAAGGGATGAATAATCCCGCAATATAAATATCTCTCACTTATTTAAA	–	0.231	0.141
ACAGACGAAGGAGCCGCAAAAAAGTTATTAAGGGATGAATAATCCCTAAATATAAATATCTCTCACTTATTTAAA	–	0.765	0.57
